Experimental data taken from patent US20150344570A1 (published 2015).

T1: FcγRIIb (human, UniProt P31994 43-217)
T1 construct: extracellular domain; also called FcgRIIb; 2b
T1 sequence (looked up): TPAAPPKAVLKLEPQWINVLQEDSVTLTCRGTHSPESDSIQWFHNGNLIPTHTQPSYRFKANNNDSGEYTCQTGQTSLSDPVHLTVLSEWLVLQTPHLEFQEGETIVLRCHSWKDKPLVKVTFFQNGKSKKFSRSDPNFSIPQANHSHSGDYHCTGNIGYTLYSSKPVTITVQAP


Columns and labels:
FcγRIIIa [1] = target: T2, FcγRIIIa (human, UniProt P08637 17-208); test: SPR (Biacore), relative binding
T2 construct: extracellular domain; also called FcgRIIIa; 3a
T2 sequence (P08637 17-208): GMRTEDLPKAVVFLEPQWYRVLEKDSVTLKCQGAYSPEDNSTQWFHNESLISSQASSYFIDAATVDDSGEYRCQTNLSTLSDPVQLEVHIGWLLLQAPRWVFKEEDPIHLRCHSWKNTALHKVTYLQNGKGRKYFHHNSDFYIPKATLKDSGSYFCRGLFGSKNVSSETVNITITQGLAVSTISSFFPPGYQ

FcγRIIb = target: T1, FcγRIIb; test: SPR (Biacore), relative binding
FcγRIIIa [2] = target: T2, FcγRIIIa; test: SPR; He/Con_3a divided by He/Con_2b (FcγRIIIa against FcγRIIb)

Row | He/Con_3a (FcγRIIIa [1]) | He/Con_2b (FcγRIIb) | He_3a/2b (IIIa/IIb) (FcγRIIIa [2]) [ratio] | Binder
1 | 30.8 % of GpH7-A5/GpH7-B3/GpL16-k0 | 192 % of GpH7-A5/GpH7-B3/GpL16-k0 | 0.16 | GpH7-A5/GpH7-B3 variant S267_03V/GpL16-k0 (antibody, human IgG1, kappa, mutation in the GpH7-B3 chain only; also called He Ab) heavy 1: not shown heavy 2: not shown light: DIVMTQSPLSLPVTPGEPASISCQASESLVHSNRNTYLHWYLQKPGQSPQLLIYKVSNRFSGVPDRFSGSGSGTDFTLKISRVEAEDVGVYYCSQNTHVPPTFGQGTKVEIERTVAAPSVFIFPPSDEQLKSGTASVVCLLNNFYPREAKVQWKVDNALQSGNSQESVTEQDSKDSTYSLSSTLTLSKADYEKHKVYACEVTHQGLSSPVTKSFNRGEC
2 | 53.8 % of GpH7-A5/GpH7-B3/GpL16-k0 | 105 % of GpH7-A5/GpH7-B3/GpL16-k0 | 0.51 | GpH7-A5/GpH7-B3 variant S267_01G/GpL16-k0 (antibody, human IgG1, kappa, mutation in the GpH7-B3 chain only; also called He Ab) heavy 1: not shown heavy 2: not shown light: DIVMTQSPLSLPVTPGEPASISCQASESLVHSNRNTYLHWYLQKPGQSPQLLIYKVSNRFSGVPDRFSGSGSGTDFTLKISRVEAEDVGVYYCSQNTHVPPTFGQGTKVEIERTVAAPSVFIFPPSDEQLKSGTASVVCLLNNFYPREAKVQWKVDNALQSGNSQESVTEQDSKDSTYSLSSTLTLSKADYEKHKVYACEVTHQGLSSPVTKSFNRGEC
3 | 11 % of GpH7-A5/GpH7-B3/GpL16-k0 | 48 % of GpH7-A5/GpH7-B3/GpL16-k0 | 0.23 | GpH7-A5/GpH7-B3 variant S267_04F/GpL16-k0 (antibody, human IgG1, kappa, mutation in the GpH7-B3 chain only; also called He Ab) heavy 1: not shown heavy 2: not shown light: DIVMTQSPLSLPVTPGEPASISCQASESLVHSNRNTYLHWYLQKPGQSPQLLIYKVSNRFSGVPDRFSGSGSGTDFTLKISRVEAEDVGVYYCSQNTHVPPTFGQGTKVEIERTVAAPSVFIFPPSDEQLKSGTASVVCLLNNFYPREAKVQWKVDNALQSGNSQESVTEQDSKDSTYSLSSTLTLSKADYEKHKVYACEVTHQGLSSPVTKSFNRGEC

Continued, binder first:

Row | Binder | He/Con_3a (FcγRIIIa [1]) | He/Con_2b (FcγRIIb) | He_3a/2b (IIIa/IIb) (FcγRIIIa [2]) [ratio]
4 | GpH7-A5/GpH7-B3 variant D265_03V/GpL16-k0 (antibody, human IgG1, kappa, mutation in the GpH7-B3 chain only; also called He Ab) heavy 1: not shown heavy 2: not shown light: DIVMTQSPLSLPVTPGEPASISCQASESLVHSNRNTYLHWYLQKPGQSPQLLIYKVSNRFSGVPDRFSGSGSGTDFTLKISRVEAEDVGVYYCSQNTHVPPTFGQGTKVEIERTVAAPSVFIFPPSDEQLKSGTASVVCLLNNFYPREAKVQWKVDNALQSGNSQESVTEQDSKDSTYSLSSTLTLSKADYEKHKVYACEVTHQGLSSPVTKSFNRGEC | 0.6 % of GpH7-A5/GpH7-B3/GpL16-k0 | 3.2 % of GpH7-A5/GpH7-B3/GpL16-k0 | 0.19
5 | GpH7-A5/GpH7-B3 variant D265_12R/GpL16-k0 (antibody, human IgG1, kappa, mutation in the GpH7-B3 chain only; also called He Ab) heavy 1: not shown heavy 2: not shown light: DIVMTQSPLSLPVTPGEPASISCQASESLVHSNRNTYLHWYLQKPGQSPQLLIYKVSNRFSGVPDRFSGSGSGTDFTLKISRVEAEDVGVYYCSQNTHVPPTFGQGTKVEIERTVAAPSVFIFPPSDEQLKSGTASVVCLLNNFYPREAKVQWKVDNALQSGNSQESVTEQDSKDSTYSLSSTLTLSKADYEKHKVYACEVTHQGLSSPVTKSFNRGEC | 3.2 % of GpH7-A5/GpH7-B3/GpL16-k0 | 15 % of GpH7-A5/GpH7-B3/GpL16-k0 | 0.21
6 | GpH7-A5/GpH7-B3 variant D265_11K/GpL16-k0 (antibody, human IgG1, kappa, mutation in the GpH7-B3 chain only; also called He Ab) heavy 1: not shown heavy 2: not shown light: DIVMTQSPLSLPVTPGEPASISCQASESLVHSNRNTYLHWYLQKPGQSPQLLIYKVSNRFSGVPDRFSGSGSGTDFTLKISRVEAEDVGVYYCSQNTHVPPTFGQGTKVEIERTVAAPSVFIFPPSDEQLKSGTASVVCLLNNFYPREAKVQWKVDNALQSGNSQESVTEQDSKDSTYSLSSTLTLSKADYEKHKVYACEVTHQGLSSPVTKSFNRGEC | 2.5 % of GpH7-A5/GpH7-B3/GpL16-k0 | 14.9 % of GpH7-A5/GpH7-B3/GpL16-k0 | 0.17
7 | GpH7-A5/GpH7-B3 variant D265_15Y/GpL16-k0 (antibody, human IgG1, kappa, mutation in the GpH7-B3 chain only; also called He Ab) heavy 1: not shown heavy 2: not shown light: DIVMTQSPLSLPVTPGEPASISCQASESLVHSNRNTYLHWYLQKPGQSPQLLIYKVSNRFSGVPDRFSGSGSGTDFTLKISRVEAEDVGVYYCSQNTHVPPTFGQGTKVEIERTVAAPSVFIFPPSDEQLKSGTASVVCLLNNFYPREAKVQWKVDNALQSGNSQESVTEQDSKDSTYSLSSTLTLSKADYEKHKVYACEVTHQGLSSPVTKSFNRGEC | -1.7 % of GpH7-A5/GpH7-B3/GpL16-k0 | 0.6 % of GpH7-A5/GpH7-B3/GpL16-k0 | -2.86
8 | GpH7-A5/GpH7-B3 variant D265_08L/GpL16-k0 (antibody, human IgG1, kappa, mutation in the GpH7-B3 chain only; also called He Ab) heavy 1: not shown heavy 2: not shown light: DIVMTQSPLSLPVTPGEPASISCQASESLVHSNRNTYLHWYLQKPGQSPQLLIYKVSNRFSGVPDRFSGSGSGTDFTLKISRVEAEDVGVYYCSQNTHVPPTFGQGTKVEIERTVAAPSVFIFPPSDEQLKSGTASVVCLLNNFYPREAKVQWKVDNALQSGNSQESVTEQDSKDSTYSLSSTLTLSKADYEKHKVYACEVTHQGLSSPVTKSFNRGEC | 0 % of GpH7-A5/GpH7-B3/GpL16-k0 | 4.6 % of GpH7-A5/GpH7-B3/GpL16-k0 | 0
9 | GpH7-A5/GpH7-B3 variant D265_14T/GpL16-k0 (antibody, human IgG1, kappa, mutation in the GpH7-B3 chain only; also called He Ab) heavy 1: not shown heavy 2: not shown light: DIVMTQSPLSLPVTPGEPASISCQASESLVHSNRNTYLHWYLQKPGQSPQLLIYKVSNRFSGVPDRFSGSGSGTDFTLKISRVEAEDVGVYYCSQNTHVPPTFGQGTKVEIERTVAAPSVFIFPPSDEQLKSGTASVVCLLNNFYPREAKVQWKVDNALQSGNSQESVTEQDSKDSTYSLSSTLTLSKADYEKHKVYACEVTHQGLSSPVTKSFNRGEC | 4.3 % of GpH7-A5/GpH7-B3/GpL16-k0 | 16 % of GpH7-A5/GpH7-B3/GpL16-k0 | 0.27
